{"source": "the DeepSol protein solubility set", "experiment": "soluble on expression in E. coli; label from the status in PepcDB or PDB records"}
{"sequence": "MSLAERKPIESWLTDMDGVLIHEGVPIPGADAFIKKLRESGKPFLVLTNNSIYTPRDLHARLRRMGLDVPVENIWTSALATAQFLGDQRPDGTAYVIGEAGLTTALHDIGYVLTDHEPDYVVLGETRTYSFEAMTQAVRLINKGARFICTNPDETGPSAEGPLPATGAVAALITKATGKKPYFAGKPNPLMMRTGLNTLGAHSETSAMIGDRMDTDVLAGMEAGMQTFLVLTGLTGPDQVENYPYRPSKVVDSIADLVDWIEGHHHHHH", "values": [{"measurement": "soluble on expression in E. coli", "value": "soluble"}]}
{"sequence": "MSLTGRAVIGVIGNAHLVDNRFAVQHVGERNLRAVAEVAGALPLMFGGSSEFAQIEDLLEVVDGILLTGGRANVHPTYFKTAPNPRHEPYDQPRDELALALVRTCVERGVPLFGICRGFQEMNVAYGGSLHPEIRELPGRMNHRMPRLENGEIHPDPTVVFADRHDVQLTSDGVFARLLGRDLIRVNSLHGQGILEPGPRIVIEGVAEDGTIEAIRIADAPGFALGVQWHAEYDPQVNPINRALFVAFGEAVSAYRTARKRPAALRRSEGHHHHHH", "values": [{"measurement": "soluble on expression in E. coli", "value": "soluble"}]}
{"sequence": "MQREDDPDAYDVIWASNGTLYFTPGFKYNTPPYPANQRVLATTDNIALTNYLRQEYNKLKESEGTPTLNDIINGFGFCYNDSSNGAGLDGTYLTVSGMLDNKYRLQLLGQYNGSNWLAYRTRNGDEQSWNPWHKVLTDNINAAISARHQYTSSSYPQIYGNGILQLGGDSRNEYGVVLRSNGTDEANAFRPSVNAGTTGHLYLGVANQKWRAVFAQNGTIQTSDRNAKHDITDLDPEKITAFIMGLKPSSYVFNDADSGRTHWGLISQDIEELFPQLGMTSMDFAGFIKSPKTEDYYEDVPETVTDEETGEEKTVTRKELKTRTVEGEYIYSLRYDEFIAPLICMVQRQQRQIEYLERRLSASESKEEAKLEHHHHHH", "values": [{"measurement": "soluble on expression in E. coli", "value": "soluble"}]}
{"sequence": "MSLAKSNDKTVTMYSIGPRLKAFSDWLLKTMAAGNLGVIFPAASREYAPLVEELWRDAAIQATYKRRSELGLLPSVANYFLERAIDVLTPDYEPSDVDILYAEGVTSSSGLACLDFSFPQTASEENLDPSDHHDSLLRYQLIRVPSRGLGENCKWIDMFEDVGMVVFVVSMSDYDQVSEDGTNKMLLTKKLFESIITHPIFENMDFLLILNKYDLLEEKVERVPLARCEWFQDFNPVVSRHRGSNNGNPTLGQLAFHFMAVKFKRFYSSLTGKKLFVSSSKSLDPNSVDSSLKLAMEILKWSEERTNICMSEYSMYSTEGHHHHHH", "values": [{"measurement": "soluble on expression in E. coli", "value": "not soluble"}]}
{"sequence": "VLFRQLEYFVAVAQERHFARAAEKCYVSQPALSSAIAKLERELNVTLINRGHSFEGLTREGERLVVWAKRILAEHAAFKAEVDAVRSGITGTLRLGTVPTASTTASLVLSAFCSAHPLAKVQVCSRLAATELYRRLREFELDAVIVHPETQDSDDVDLVPLYEEQYVLLSPADMLPPGTSTLVWRDAAQLPLALLTADMRDRQVIDAAFADHAVSAIPQVETDSVASLFAQVATGNWASIVPHTWLWAMPMSGPTGGEIRAVELVDPVLKAQIALATNALGPGSPVARALITCAQALALNEFFDTQLRGITRRR", "values": [{"measurement": "soluble on expression in E. coli", "value": "not soluble"}]}
{"sequence": "MGSDKIHHHHHHMSFEKTSELIEKSRELQEVYQQLVEDVGLDLWRFCRYLTGSPWDGEDLYQETLVKAFGSLYQRWQPTNPKAYLFRIATNTWIDQCRKAKRIVGTVDEMEGPVEEFSNDLELEHAFTRLFTLFPPRQVAVFLLKDVFAFTAEEVASMVRSTSNGVYATSSRVRKKLKETASLEEELSSNGRPSPEQSEVIQQYLEAFNAGDLGKLFDLMSDEVHIDASLGFQEYSKEEMKKGSMQYGLPGFRAEPFVLWGKTVLVVLVDRDAGPLIHDIQFQEIENGKIVYHKSYYFCKEFLMGAAKELQLQVQLDKAAVHWRHSLDEGEL", "values": [{"measurement": "soluble on expression in E. coli", "value": "not soluble"}]}
{"sequence": "MSEPFSVPVTVRGYETDTQGHLNQSVYLNYAEHARWSLLQAAGIRQADLVARGVGPVALETTIRFQRELLAGDEVTVTCAFEWGTGKTFRIRQLVTKADGTVAAEIEAVGGLMDLGERRLVPDPRQRFKELAARPELFGLLEHHHHHH", "values": [{"measurement": "soluble on expression in E. coli", "value": "not soluble"}]}
{"sequence": "MSLAGVGGRPPPSVGSVVVADTTMFTDAKLREVLGARSLEEAARIMARILARASRMGLTVYITPSVRAEIERFMLGNGVHPTTIARLMAWVRVKPPTTHELRLPAAMFRRYVETVRARLDKGLRVAEDHVRRALRSRDEEGDIVRSLREKYREYTRKGMLDSVEDVDTLLLALELGAAIVTSDEGLRRAAEDLGLTVLTPVELLEYILALEEEVKSVEEEGHHHHHH", "values": [{"measurement": "soluble on expression in E. coli", "value": "not soluble"}]}
{"sequence": "SMNNKEVELYGGAITTVVPPGFIDASTLREVPDTQEVYVNSRRDEEEFEDGLATNESIIVDLLETVDKSDLKEAWQFHVEDLTELNGTTKWEALQEDTVQQGTKFTGLVMEVANKWGKPDLAQTVVIGVALIRLTQFDTDVVISINVPLTKEEASQASNKELPARCHAVYQLLQEMVRKFHVVDTSLFA", "values": [{"measurement": "soluble on expression in E. coli", "value": "soluble"}]}
{"sequence": "MSLTLPELFTSVFSHFKGQPDKAPIARKINGAYSPISYDSLAEDCRHFAAYLKERGIEPGDRVAILSENRPGWYLADIAILSLGATDVPLYPSLPPNQIEYILNNCSAKGIIVSNMLQLGKILSIWPKLPELNMVIVMNKLDEPVEDVIDLSQAKTEGKKVLEAKPWLLDGIKSNPDDVATLIYTSGTTGLPKGVMLTHRNICENVKSCSTVIRIDQTDSSLSFLPLSHAYERTGGYYLMFACGARINLAESVETISLNISEAKPTIIFTVPRLFDRMKASILKSVTSEGGVKEKIFFWAVSTGEKYHKQLATGKVSPLLAVQHNLADKLVYSKIRKKFGGKLRYFVSGGAALPQKTGEFFQSIGITILEGFGLTETSPVTNVNRPEKVKFGTVGLPVKNVEVKIAPDGEIMLKGPNIMKGYWKDEAASAEVLRDGWLYTGDIGEVDSEGYLKITDRKKHIIVTSGGKNIAPLQIENLILDSPYVDQAMIVGEKRPFLIALIVPDFLKLRDFAAEHQIKASSTKELINTKEVIEVYEKLLKSISRQLATHEKVRKFLLLEEPFSIENGMMTPTLKLKRKEITTKFSAEIDNLYNTLNMVYNTEGHHHHHH", "values": [{"measurement": "soluble on expression in E. coli", "value": "not soluble"}]}
{"sequence": "MKVAILGASGWIGSHLAAEAKMRGHEVVAVVRDPAKVTLKGVAVQQLDILNPESSLKSVLEGVDAVIASIGGRAAGNHEMVAKTAQRLLNELPQAGVARLLWVGGAGSLEVAPGVKLVTVPGFPEEYKGEALAQGEALEVFRASNSDVNWTFVSPAAEIFPGDKQGQYRVGGDQLLTDSEGNSRISVADYAVALIDELEYAEHPRQRIGVAYLEHHHHHH", "values": [{"measurement": "soluble on expression in E. coli", "value": "not soluble"}]}
{"sequence": "MTAMLSMACRRAVRAGAHCDEGGHVKAFDYPDSMNNKPVPIVLRRTSIGLILFILPAMLIGCSRVPVKTQPKPASVNVWPLTTPANPEAANEVVMRALSLVGTPYRFGGNTPESGFDCSGLVSYVYRDALDLRLPRTSYELAAVQGPKIDAEQLTTGDLVFFGSARSVTHVGIYLSEGRFVHAPSSGGTVRLDRLDTPYWRDHYTGAKRVLRIIEAKVSMVFTDKCHLTFTHYGEESAQAALHTYFNIGDINQVEVQGLPETCFNSLNQQQENVPSPRHISENVDCIYSAENMQNQILDKSFNRTIALHHHNASQFVLWNPWHKKTSGMSETGYQKMLCLETARIHHLLEFGESLSVEISLKG", "values": [{"measurement": "soluble on expression in E. coli", "value": "soluble"}]}
{"sequence": "MGSDKIHHHHHHMGETNQQGVKNPLQTKEVAERQAKKEKQVVFIYYDHEPTYKLLEDQLVDQGDFELVSTNQSEDAVAILGSLSIDSVVFINTAKSKQMYQLYEKTSGSHHYLHAPFFYIGECSHEEMGQIFANGHEFISSPFNLETFYLKMKAKLDHCTRIKNDRQIDLVTQLYTERFLEKMFHLQVANLVRFKTSFTVIFLSLYNYYELKTKYGLTIADQIVATVSDYIKSQVRDSDLAFRMDAEDEIAVILPNGGQTEAGYFVRRVFEHIPPVTTTENGEPLQFFIELSASIVEINNADVTYEEMLEKGKEALQEAVFKGASTIETVNDFQEPNVEKIKVTVIVEDQVIRSVLVNLLQRLTLEYFELDVQTFFDGEALLESSWHRSAHTHIVIMDDVLPKRNGLEMVHELRKMPNNEKYIVMMLSNRKTEEDVTYAFEMGVDDYITKPFNVKFVESRLKRYLKRLR", "values": [{"measurement": "soluble on expression in E. coli", "value": "not soluble"}]}
{"sequence": "MQRIPCVLMRGGTSKGPFFHAWDLPANVVERDELLINLMGSGHELEIDGIGGGSPQTSKVAIISPSLHADADVDYLFVQVMVAQRRVDTAPNCGNMLCAVGPFAIEQGLVKGQEGKTLVRIRNLNTGTFVNSLVETPGGIVRYEGRTAIDGVPGTAAPVHLTFLDAVGSKTGKLFPTGKAQDVIDGVPVTCIDMAMPMMVVEASQLGVSGSETPAQLDANSALLERLEALRLKAGKAMGLGDVSGMVIPKPVLVSKPRYDGTLQVRYFMPHNCHRALAITGAVGLATACVSPGTVIADLLGEGAQQLAQVRLEHPSGGIDVALTRSGAEGQTIQASVVRTARRLFSGFVYAPTFRRLAGLEHHHHHH", "values": [{"measurement": "soluble on expression in E. coli", "value": "soluble"}]}
{"sequence": "MAHHHHHHMEISSISETDKNAITRLLSSDLSRTVARHAIIVLHYFRTISDEDLPIDVLLGGCVLYAVKQRQASNANYFLRECLERVKESDIVGFELLLVQVVRHNVLLIETCLRSVFHEVLLENPVAGLDRERTIKVCLHLISFLYRTSWCLFPESAARGAFLVASEKCEIKLGKLSSAFDGPMVKHIAKYLRDQFWN", "values": [{"measurement": "soluble on expression in E. coli", "value": "not soluble"}]}
{"sequence": "RAHQRWREHALAVIKDKMYNHIGSILVFLPGVADIRFLLDSLMAQKVEGVKICPLFGELSLKEQQQAIAPCLSGHRKIVLATNIAETSLTIDGIDLVIDCGLEKVAVFDSASLMNKLMQKQISKASAVQRAGRAGRLMHGQCIRLYGKDDFERR", "values": [{"measurement": "soluble on expression in E. coli", "value": "not soluble"}]}
{"sequence": "MGSDKIHHHHHHMQYIHVVNGDVAGNTLRQALAQAARPDPVVVLRDDLAVGPLVDVDSTGSIRSGFWQRVAPHTDIDFAAEMRQALDQLQKLRQSDMEIAIWHGQSAADQLMLRRVVFHLYQAPQRINEVAMDLRELELPPQAGLAAIGMYSPARLARRFSTIAPVSVLRLGRLGYEWQQNVRENADVRLWKGNTLVAAAYHSIDDIIMERAPSEWTPAAEVVGSVMGAIEGLLASDWFVFWRCRELISMGRMVLRGNADSLDTCELRRHVIASAE", "values": [{"measurement": "soluble on expression in E. coli", "value": "not soluble"}]}
{"sequence": "TAYLGPAGSWTHQACLDLYGADGLVPLSREALFAAYADGKVERACVPVATSVVGLTPYMEDVLALPRVVVVAEYPKMLGYSLLARPGTRREDIKEVHAHPVAFEEVRPWLEREMPGARRVPAASGGAAAQAVAASATQDKASFGPRVGASVYQLVSLADGIEEGPHNVTRWWVLGRDMP", "values": [{"measurement": "soluble on expression in E. coli", "value": "not soluble"}]}
{"sequence": "MGSDKIHHHHHHMKNRKTPMKEQSPESRRRNFEEVALGYTLEEALEEAQRCLQCPTHPCVSGCPVEIDIPGFIRKLRDGKLEESYRILKSYNNLPAVCGRVCPQEVQCESRCVVGKMKDSEPVAIGRLERFVADWAAENLEEDVKPLAGSKKEKVAVVGSGPAGLTAAADLAKMGYHVDIFEAFHKPGGVLVYGIPEFRLPKRIVEREVSYIRKLGVNFHLNTVVGKTVKVKELLSEYDAVFIGTGAGTPKFMGIPGTNLNGVYSANEFLTRVNLMKAYLFPEYDTPIRVGKKVAVIGAGNTAMDAARSALRLGAEKVYIVYRRTEREMPARREEYHHALEEGIEFLWLTLPIRYIGDANGNVEAMECVRMELKEADGSGRPRPVPIEGSNFVLEVDMVIEAIGQGPNRVLLSEFPGLELNERGYIKADEDTGATSVKGVFAGGDIVTGAATVIKAMGAGKKAAQFIHSYLTGEWNPWQK", "values": [{"measurement": "soluble on expression in E. coli", "value": "not soluble"}]}
{"sequence": "MAAERVFISPAKYVQGKNVITKIANYLEGIGNKTVVIADEIVWKIAGHTIVNELKKGNIAAEEVVFSGEASRNEVERIANIARKAEAAIVIGVGGGKTLDTAKAVADELDAYIVIVPTAASTDAPTSALSVIYSDDGVFESYRFYKKNPDLVLVDTKIIANAPPRLLASGIADALATWVEARSVIKSGGKTMAGGIPTIAAEAIAEKCEQTLFKYGKLAYESVKAKVVTPALEAVVEANTLLSGLGFESGGLAAAHAIHNGFTALEGEIHHLTHGEKVAFGTLVQLALEEHSQQEIERYIELYLCLDLPVTLEDIKLKDASREDILKVAKAATAEGETIHNAFNVTADDVADAIFAADQYAKAYKEKHRK", "values": [{"measurement": "soluble on expression in E. coli", "value": "soluble"}]}
